Here are results for 41 sequences from the nanobody polyreactivity screen of Harvey et al. (2022).

The data set in a line: yeast display, Sf9 membrane polyspecificity reagent, FACS + sequencing; frameworks hold sequencing errors. In outline: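 A synthetic nanobody library was expressed on Saccharomyces cerevisiae BJ5465 by galactose induction for 36–48 hours. The library was stained for 1 hour at 4 °C with 10% biotinylated, detergent-solubilized Sf9 membrane reagent and enriched with streptavidin microbeads before FACS. Low and high (top ~1%) gates were set on anti-HA fluorescence for expression and streptavidin fluorescence for reagent binding, and each polyreactivity label reflects the gate of origin.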
Turning to “QDQLVESGGGLVQAGGSLRLSCAASGLIFPYNAMGWYRQAPGKERELVAAIDTRGSSTYYADSVKGRFTISRDNAKNTVYLQMNSLKPEDTAVYYCIPRSGRSPTGFRYWGQGTEVTVSS”, the “polyreactivity (PSR sort gate)” value is recorded as “high polyreactivity”.

As for “QDQLVESGGGLVQAGGSLRLSCAASGLIFVSYAMGWYRQAPGKERELVASITDSDSSTYYADSVKGRFTISRDNAKNTVYLQMNSLKPEDTAVYYCATGGRTEIWYPTLDYWGQGTQVTVSS”, the “polyreactivity (PSR sort gate)” value is on record as “low polyreactivity”.

Turning to “QDQLVESGGGLVQAGGSLRLSCAASGLIFYGNAMGWYRQAPGQERELVADISGSSVRTYYADSVKGRFTISRDNAKNTVCLQMNSLKPEDTAVYYCAATYGYLYTGLSRYDYWGQGTQVTVSS”, the “polyreactivity (PSR sort gate)” value is listed as “low polyreactivity”.

Regarding “QDQLVESGGGLVQAGGSLRLSCAASGLIYSYYALGWSRQATGKERELVASISRSGGSTYYADSVKGRFTISRDNAKNTVYLQMNILKPEDPAVYYCDAPGYYRTSRMDYWGQGTQVTVSS”, the “polyreactivity (PSR sort gate)” value was “high polyreactivity”.

For “QDQLVESGGGLVQAGGSLRLSCAASGLTFEKYAMGWYRQAPGKERELVAAISQDGGSTYYADSVKGRFTISRDNAKNTVYLQMNSLKPEDTAVYYCAAEDPDSWLPWDLFDYWGQGTQVTVSS”, the “polyreactivity (PSR sort gate)” value was “low polyreactivity”.

For the sequence “QDQLVESGGGLVQAGGSLRLSCAASGLTFQSYAIGWYRQAPGKERELVATISNGSSTYYADSVKGRFTISRDNAKNTVYLQMNSQKPEDTAVYYCAADGYLHAGHWRTYGYYYWGHGTQVTVSS”, the “polyreactivity (PSR sort gate)” value is recorded as “low polyreactivity”.

As to “QDQLVESGGGLVQAGGSLRLSCAASGLTIIFNAMGWYRQAPGKERELVADISSGVNTNYADSVKGRFTISRDNAKNTVYLQMNSLKPEDTAVYYCAARLAQSTGYGYWGQGTQVTVSS”, the “polyreactivity (PSR sort gate)” value was “low polyreactivity”.

For “QDQLVESGGGLVQAGGSLRLSCAASGPIFYPYVMGWYRQAPGKERELVAAISDSTGSTYYADSVKGRFTISRDNAKNTVYLQMNSLKPEDTAVYYWGQGTQVTVSS”, the “polyreactivity (PSR sort gate)” value is given as “low polyreactivity”.

For “QDQLVESGGGLVQAGGSLRLSCAASGRIFLYNAMGWYRQAPGKERELVAAIDGGGTTYADSVKGRFTISRDNAKNTVYLQMNSLKPEDTAVYYCAADWYYQYSIYRYGYWGQGTQVTVSS”, the “polyreactivity (PSR sort gate)” value is on record as “low polyreactivity”.

Take “QDQLVESGGGLVQAGGSLRLSCAASGRIFPVYAMGWYRQAPGKERELVATITSRTGRTYYADSVKGRFTISRDNAKITVYLQMNSLKPEDTAVYYCAARGYYSAPGYGYWGQGTQVTVSS”: the “polyreactivity (PSR sort gate)” value was “high polyreactivity”.

For the sequence “QDQLVESGGGLVQAGGSLRLSCAASGRIFVHNAMGWYRQAPGKERELVAAIYQNGGRTYYADSVKGRFTISRDNAMNTVYLQMNSLKPEDTAVYYCAAGQARAGLIGGYWGQGTQVTVSS”, the “polyreactivity (PSR sort gate)” value is “high polyreactivity”.

“QDQLVESGGGLVQAGGSLRLSCAASGRILASYAMGWYRQAPGKERELVAAISLSGGSTYYADSVKGRFTISRDNAKNTVYLQMNSLKPEDTAVTYCAAKYPQKTPVNSYGNSFYYWGQGTQVTGSS”: the “polyreactivity (PSR sort gate)” value is given as “low polyreactivity”.

Regarding “QDQLVESGGGLVQAGGSLRLSCAASGRILPYYTMGWYRQAPGKERELVAAISKRGTSTYYADSVKGRFTISRDNAKNTVYLQMNSLKPEDTAVYYCAKRGPGVDYDYWGQGTQVTVSS”, the “polyreactivity (PSR sort gate)” value is reported as “high polyreactivity”.

Turning to “QDQLVESGGGLVQAGGSLRLSCAASGRILRQYAMGWYRQAPGKERELVAAITSGDSTYYADSVKGRFTISRDNAKNTVYLQMNSLKTEDTAVYYCAAYSWLYEGYEYWGQGTQVTVSS”, the “polyreactivity (PSR sort gate)” value is “high polyreactivity”.

“QDQLVESGGGLVQAGGSLRLSCAASGRTFAKSAMGWYRQAPGKERELVASISRRGGSTYYADSVKGRFTISRDNAKNTVYLQMNSLKPEDTAVYYCNAVVTVNGYDSWGQGTQVTVSS”: the “polyreactivity (PSR sort gate)” value was “high polyreactivity”.

“QDQLVESGGGLVQAGGSLRLSCAASGRTFHRNAMGLYRQAPGKERELVAAITGTGGRTYYADSVKGRFTISRDNAKNTVYLQMNSLKPEDTEVYYCAARPWIKSGYWGQGTQVTVSW”: the “polyreactivity (PSR sort gate)” value was “high polyreactivity”.

As to “QDQLVESGGGLVQAGGSLRLSCAASGRTFPYKAMGWYRQAPGKERELVAAISYAGGRTYYADSVKGRFTISRDTAKNTVYLQMNSLKPEDTAVYYCYALGSGREDDYWGQGTQVTVSS”, the “polyreactivity (PSR sort gate)” value was “high polyreactivity”.

For the sequence “QDQLVESGGGLVQAGGSLRLSCAASGRTFSTYAMGWYRQAHGKERELVARITSSGGSTYFADSVKGRFTISRDNAKNTVYLQMNSLKPEDTAVYYCAADAWSYWGYPYWWGYDYWGQGTQVTVSS”, the “polyreactivity (PSR sort gate)” value is “high polyreactivity”.

“QDQLVESGGGLVQAGGSLRLSCAASGRTFTTNDMGWYRQAPGKEWELVAGISWSGGSTFYADSVKGRFTISRDNAKNTVYLQMNSLKPEDTAVYSCATSARSYQSAYGHYTWYDYWGQGTQVTVSS”: the “polyreactivity (PSR sort gate)” value is listed as “low polyreactivity”.

Take “QDQLVESGGGLVQAGGSLRLSCAASGRTFVFYAMGWYRQAPGKERELVAAITSGTSTNYADSVKGRFTISRDNAMNTVYLQMNSLKPEDTAVYYCAAYWTDLTYSIGFGYWGQGTQVTVSS”: the “polyreactivity (PSR sort gate)” value is on record as “low polyreactivity”.

On to “QDQLVESGGGLVQAGGSLRLSCAASGRTFWRYAMGWYRQAPGKERELVAAITSGGGSTYYADSVKGRFTISRDTAKNTVYLQMNSLKPEDTAVSYCNRAGRGRSFKGDYWGQGTQVTVSS”, for which the “polyreactivity (PSR sort gate)” value is listed as “high polyreactivity”.

Take “QDQLVESGGGLVQAGGSLRLSCAASGRTFWVYAKGWYRQAPGKERELVAGISWDDGSTYYADSVKGRFTISRDNAKNTVYLQMNSLKPEDTAVYYCAADAYFIFYISYEYWGQGTQVTVSS”: the “polyreactivity (PSR sort gate)” value was “low polyreactivity”.

For “QDQLVESGGGLVQAGGSLRLSCAASGRTFYIYAMGWYRQATGKERELVAAISSYTSTKYADSVKGRFTISRDNAKNTVYLQMICLKPEDTAVYYCASGYPVRYRGYLNWSYYAYDYWGQGTQVTVSS”, the “polyreactivity (PSR sort gate)” value was “low polyreactivity”.

For “QDQLVESGGGLVQAGGSLRLSCAASGRTFYLYAMGWYRQAPGKERELVARISWGGGRTYYADSVKGRFTISRDNAKNTVYLQMNSLKPEDTAVYYCNAQSPRGFTTTRQVYPLNGYWGQGTQVTVSS”, the “polyreactivity (PSR sort gate)” value is “high polyreactivity”.

On to “QDQLVESGGGLVQAGGSLRLSCAASGRTFYRYAMGWYRQAPGKERELVASITRGTSTNYADSVKGRFTISRDNAKNTVYLQMNSLKPEDTAVYYCNRRIFGGQRMYYWGQGTQVTVSS”, for which the “polyreactivity (PSR sort gate)” value is given as “high polyreactivity”.

Regarding “QDQLVESGGGLVQAGGSLRLSCAASGRTIFRNAMGWYRQAPGKERELVAAITWSGGSTYYADSVKGRFTISRDNAKNTVYLQMNSLKPEDTAVYYCNRKRYGSDYEYWGQGTQVTVSS”, the “polyreactivity (PSR sort gate)” value is on record as “low polyreactivity”.

On to “QDQLVESGGGLVQAGGSLRLSCAASGRTLTRYTMGWYRQAPGKERELVATISRSGGNTHYADSVKGRFTISRDTAKNTVYLQMNSLIPEDTAVYYCNAVRYAIYGYDYWGQGTQVTVSS”, for which the “polyreactivity (PSR sort gate)” value is “high polyreactivity”.

“QDQLVESGGGLVQAGGSLRLSCAASGSIFADYVMGWYRQAPGKERELVAAITRRGRTYYADSVKGRFTISRDNAKNNVYLQMNSLKPEDTAVYYCAKVAYGKIDSWGQGTQVTVSS”: the “polyreactivity (PSR sort gate)” value was “low polyreactivity”.

Turning to “QDQLVESGGGLVQAGGSLRLSCAASGSIFDRNAMGWYRQAPGKERELVAAITSRGGRTYYADSVKGRFTISRDNAKNTVYLQMNSLKPEDTAVYYCNAVYSQSGYFYRFDYWGQGTQVTVSS”, the “polyreactivity (PSR sort gate)” value is given as “high polyreactivity”.

Regarding “QDQLVESGGGLVQAGGSLRLSCAASGSIFDVNAMGWYRQAPGKERELVAAISDSGGSTYYADSVKGRFTISRDNAKNTVYLQMNSLKPEDTAVYYCNADWSWYNYYDFDYWGQGTQVTVSS”, the “polyreactivity (PSR sort gate)” value is listed as “low polyreactivity”.

“QDQLVESGGGLVQAGGSLRLSCAASGSIFGRYAMGWYRQAPGKERELVANITSGDSTNYADSVKGRFTISRDNAKNTVYLQMNSLKPEDTAVYYCAADTIYFYYYRHWYSKYYYWGQGTQVTVSS”: the “polyreactivity (PSR sort gate)” value is “high polyreactivity”.

“QDQLVESGGGLVQAGGSLRLSCAASGSIFGWYAMGWYRQAPGKERELVAAITWSGGSTYYADSVKGRFTISRDNAKNTVYLQMNSRKPEDTAVYYCAATYYGYVGRYDYWGQGTQVTVSS”: the “polyreactivity (PSR sort gate)” value is listed as “high polyreactivity”.

For the sequence “QDQLVESGGGLVQAGGSLRLSCAASGSIFNVNTMGWYRQAPGKERGLVAAISYSGGSTYYADSVKGRFTISRDNAKNTVYLQMNSLKPEETAVYYCNVSPTTSGDGGGYDSWGQGTQVTVSS”, the “polyreactivity (PSR sort gate)” value is given as “low polyreactivity”.

With “QDQLVESGGGLVQAGGSLRLSCAASGSIFSVYVMGWYRQAPGKERELVATISSGGGTYYADSVKGRFTISRDNAKNTVYLQMNSLKPEDTAVYYCNADWDDWKGDYWGQGTQVTVSS”, the “polyreactivity (PSR sort gate)” value is listed as “low polyreactivity”.

For “QDQLVESGGGLVQAGGSLRLSCAASGSIFSYYAMGWYRQAPGKERELVAAIRRGGSTYYADSVKGRFTISRDNEKNSVYLQMNSLKPEDNAVYYCAASLGWRFYYWGQGTQVTVSS”, the “polyreactivity (PSR sort gate)” value was “high polyreactivity”.

As for “QDQLVESGGGLVQAGGSLRLSCAASGSIFTRYTMGWYRQAPGKERELVATISSRGDGTYYADSVKGRFTISRDNAKNTVYLQMNSLKPEDTAVYYCAARYRRVHSGYGYWGQGTQVTVSS”, the “polyreactivity (PSR sort gate)” value is reported as “high polyreactivity”.

Consider “QDQLVESGGGLVQAGGSLRLSCAASGSIFVGYAMGWYRQAPGKETELVAAISTRGGSTYYADSVKGRFTISRDNAKNTVYLQMNSVKPEDTAVYYCAADYLDSTYGYVYGWDDYWGQGTQVTVSS”, for which the “polyreactivity (PSR sort gate)” value is “low polyreactivity”.

Consider “QDQLVESGGGLVQAGGSLRLSCAASGSIFYQNAMGWYRQAPGKERELVAAISIGGGSTYYADSVKGRFTISRDNAKNTVYLQMNSLKPEDTAVYYCATRRSVIYSYVPFDYWGQGTQVTVSS”, for which the “polyreactivity (PSR sort gate)” value is “low polyreactivity”.

As to “QDQLVESGGGLVQAGGSLRLSCAASGSIIFFYVMGWYRQAPGKERELVAAITYSGGSTFYADSVKGRFTISRDNAKNSVYLQMNSLKPEDTAVNYCAAEYGQWTPLDPYNHWGQGTQVNVSS”, the “polyreactivity (PSR sort gate)” value was “low polyreactivity”.

Regarding “QDQLVESGGGLVQAGGSLRLSCAASGSNFLKYTMGWYRQAPGKERELVAAITSGGTTNYADSVKGRFTISRDNAKNTVYLQMNSLKPEDTAVYYCARDSYQLGLIRDPLEYDYWGQGTQVTVSS”, the “polyreactivity (PSR sort gate)” value is on record as “low polyreactivity”.

As to “QDQLVESGGGLVQAGGSLRLSCAASGSSFGYYAMGWYRQAPGKERELVASISWRGVSTYYADSVKGRFTISRDNAKNTVYIQMNSLKPEDTAVYYCATVYRWSFDYWGQGTQVTVSS”, the “polyreactivity (PSR sort gate)” value is recorded as “low polyreactivity”.
